Laboratory results reported in US20120171118A1, “TREATMENT OF MENINGEAL AND NEURAL DISEASES” (THE GENERAL HOSPITAL CORPORATION, priority 2009, published 2012).

How the values were obtained:
[1] = systemically administered; cited from earlier work
[2] = neoplastic carcinoma patients; cited from earlier work
[3] = assay type: in vitro ADME; conditions: rat, plasma
Protocol: The mechanism of the second stage hydrolysis in vivo, which results in the active CPT release, may include spontaneous or enzymatic hydrolysis as well as, e.g., aminolysis. In vitro, the half-life of (N-succinamido)-glycyl linkage in the CPT prodrug (VI) in rat plasma was over 20 hours.

[4] = assay type: physicochemical
Excerpt: Based on the experimental data on CPT release from PHF-CPT, the action of the conjugate after intrathecal administration will be localized in the target compartment (leptomeningeal tissues contacting with CSF). The kinetics of CPT release includes two phases: (1) non-enzymatic release of a highly hydrophobic prodrug camptothecin succinimidoglycinate (CPT-SI), and (2) release of active CPT from CPT-SI (Scheme 6). […] Thus, it is expected that CPT-SI will be deposited in the leptomeningeal space and will redistribute only locally along cell membranes and other hydrophobic compartments. […] A similar distribution pattern in the meningeal compartment is expected, with CPT-SI penetration from CSF into the cancer cell formations through several cell layers.

[5] = humans, cited from earlier work
[6] = PET imaging of 124I-labeled human recombinant enzymes after IV and IT administration; assay type: in vivo, rats
Protocol: Imaging was performed using MicroPET P4. Spatial resolution (full width at half maximum, FWHM) was studied using a line ^124I source (Ø=0.19 mm) in water. A 51×127 mm cylindrical phantom was used to evaluate the count-rate performance and coincidence detection. Studies in rats and cynomolgus monkeys were carried out using five human recombinant enzymes. The proteins were labeled with ^124I, at up to 5 mCi/mg.
Next, three human recombinant enzymes, idursulfase, arylsulfatase A, and sulfamidase were labeled with ^124I and administered at 1 and 10 mg/kg via two routes, IV and IT. Dynamic imaging data and multiple static images were acquired over 8 days, and processed to determine the principal PK parameters. FITC labeled sulfamidase was also utilized to investigate brain cryosections by photoimaging.

In the case of CN(Cc1cnc2nc(N)nc(N)c2n1)c1ccc(C(=O)N[C@@H](CCC(=O)O)C(=O)O)cc1 [methotrexate], the “CSF level relative to the systemic level” value [1] is listed as 1.7%.

In the case of CC[C@@]1(O)C(=O)OCc2c1cc1n(c2=O)Cc2cc3c(CN(C)C)c(O)ccc3nc2-1 [topotecan], the clinical outcome [2] is given as “not promising”.

For “camptothecin succinimidoglycinate [CPT-SI]”, the “half-life of (N-succinamido)-glycyl linkage” value [3] was “over 20 hours” and the solubility in water [4] was “practically insoluble in water”.

In the case of “indium complex of diethylenetriaminepentaacetic acid [In-DTPA]”, the “time to reach brain ventricles” value ([5]; after intralumbar injection) is listed as “ca. 5 hours” and the “half-life in CSF” value [5] is listed as 13.5 ± 4.5 h.

B1: sulfamidase: human recombinant enzyme labeled with 124I (protein, UniProt P51688 21-502, looked up)
N-sulphoglucosamine …: RPRNALLLLADDGGFESGAYNNSAIATPHLDALARRSLLFRNAFTSVSSCSPSRASLLTGLPQHQNGMYGLHQDVHHFNSFDKVRSLPLLLSQAGVRTGIIGKKHVGPETVYPFDFAYTEENGSVLQVGRNITRIKLLVRKFLQTQDDRPFFLYVAFHDPHRCGHSQPQYGTFCEKFGNGESGMGRIPDWTPQAYDPLDVLVPYFVPNTPAARADLAAQYTTVGRMDQGVGLVLQELRDAGVLNDTLVIFTSDNGIPFPSGRTNLYWPGTAEPLLVSSPEHPKRWGQVSEAYVSLLDLTPTILDWFSIPYPSYAIFGSKTIHLTGRSLLPALEAEPLWATVFGSQSHHEVTMSYPMRSVQHRHFRLVHNLNFKMPFPIDQDFYVSPTFQDLLNRTTAGQPTGWYKDLRHYYYRARWELYDRSRDPHETQNLATDPRFAQLLEMLRDQLAKWQWETHDPWVCAPDGVLEEKLSPQCQPLHNEL
modifications: 124I label
notes: human recombinant enzyme labeled with 124I
For B1, the “initial label content in the brain region” value (“initial label content” below) ([6]; after IT administration, 124I label, PET) was 35 % of the injected dose/g and the “initial label content” value ([6]; after IV administration, 124I label, PET) was 0.05 % of the injected dose/g.

B2: idursulfase: human recombinant enzyme labeled with 124I (protein, UniProt P22304 34-455; P22304 456-550, looked up)
Iduronate 2-sulfatase 42 kDa …: TDALNVLLIIVDDLRPSLGCYGDKLVRSPNIDQLASHSLLFQNAFAQQAVCAPSRVSFLTGRRPDTTRLYDFNSYWRVHAGNFSTIPQYFKENGYVTMSVGKVFHPGISSNHTDDSPYSWSFPPYHPSSEKYENTKTCRGPDGELHANLLCPVDVLDVPEGTLPDKQSTEQAIQLLEKMKTSASPFFLAVGYHKPHIPFRYPKEFQKLYPLENITLAPDPEVPDGLPPVAYNPWMDIRQREDVQALNISVPYGPIPVDFQRKIRQSYFASVSYLDTQVGRLLSALDDLQLANSTIIAFTSDHGWALGEHGEWAKYSNFDVATHVPLIFYVPGRTASLPEAGEKLFPYLDPFDSASQLMEPGRQSMDLVELVSLFPTLAGLAGLQVPPRCPVPSFHVELCREGKNLLKHFRFRDLEEDPYLPG
Iduronate 2-sulfatase 14 kDa …: NPRELIAYSQYPRPSDIPQWNSDKPSLKDIKIMGYSIRTIDYRYTVWVGFNPDEFLANFSDIHAGELYFVDSDPLQDHNMYNDSQGGDLFQLLMP
modifications: 124I label
notes: as for B1
With B2 the “half-life of clearance from both the brain and spinal cord” value ([6]; rat, in vivo) was “ca. 7 h”, the “initial label content” value ([6]; rat, in vivo) was 45 % of the injected dose/g and the “initial label content” value ([6]; rat, in vivo, iv) was 0.20 % of the injected dose/g.

B3: arylsulfatase A: human recombinant enzyme labeled with 124I (protein, UniProt P15289 19-507, looked up)
Arylsulfatase A: RPPNIVLIFADDLGYGDLGCYGHPSSTTPNLDQLAAGGLRFTDFYVPVSLCTPSRAALLTGRLPVRMGMYPGVLVPSSRGGLPLEEVTVAEVLAARGYLTGMAGKWHLGVGPEGAFLPPHQGFHRFLGIPYSHDQGPCQNLTCFPPATPCDGGCDQGLVPIPLLANLSVEAQPPWLPGLEARYMAFAHDLMADAQRQDRPFFLYYASHHTHYPQFSGQSFAERSGRGPFGDSLMELDAAVGTLMTAIGDLGLLEETLVIFTADNGPETMRMSRGGCSGLLRCGKGTTYEGGVREPALAFWPGHIAPGVTHELASSLDLLPTLAALAGAPLPNVTLDGFDLSPLLLGTGKSPRQSLFFYPSYPDEVRGVFAVRTGKYKAHFFTQGSAHSDTTADPACHASSSLTAHEPPLLYDLSKDPGENYNLLGGVAGATPEVLQALKQLQLLKAQLDAAVTFGPSQVARGEDPALQICCHPGCTPRPACCHCPDPHA
modifications: 124I label
notes: as for B1
With B3 the “initial label content” value ([6]; rat, in vivo) was 70 % of the injected dose/g and the “initial label content” value ([6]; rat, in vivo, iv) was 0.15 % of the injected dose/g.
